Assay [1] deals with T1, RNA polymerase core enzyme (subunits α2ββ'ω) (UniProt P0A7Z4 1-329; P0A8V2 1-1342; P0A8T7 1-1407; P0A800 1-91). The assay can be described thus: BLI; Octet RED96, 303 K; 0.5 μM Biotin-DinBΔPAD immobilised on streptavidin biosensors, blocked with biocytin; RNAP core as analyte in 2-fold serial dilution; 50 mM KPi pH 6.5, 50 mM NaCl, 25 mM MgCl2, 1 mM TCEP, 0.25% BSA; double referencing. Particulars: both partners purified.

Assay [2] deals with T1, RNA polymerase core enzyme (subunits …). The assay can be described thus: BLI; Octet RED96, 303 K; 0.5 μM Biotin-DinB immobilised on streptavidin biosensors, blocked with biocytin; RNAP core as analyte in 2-fold serial dilution; 50 mM KPi pH 6.5, 150 mM NaCl, 25 mM MgCl2, 1 mM TCEP, 0.5% BSA; double referencing. Conditions: both partners purified.

Data on two molecules can be found in paper PMC10359629, “Thumb-domain dynamics modulate the functional repertoire of DNA-Polymerase IV (DinB)” (Nucleic Acids Research, 2022).

B1: DinBΔPAD (DinB^1-230) (domain or fragment, E. coli, UniProt Q47155 1-230, looked up)
chain: MRKIIHVDMDCFFAAVEMRDNPALRDIPIAIGGSRERRGVISTANYPARKFGVRSAMPTGMALKLCPHLTLLPGRFDAYKEASNHIREIFSRYTSRIEPLSLDEAYLDVTDSVHCHGSATLIAQEIRQTIFNELQLTASAGVAPVKFLAKIASDMNKPNGQFVITPAEVPAFLQTLPLAKIPGVGKVSAAKLEAMGLRTCGDVQKCDLVMLLKRFGKFGRILWERSQGID
modifications: biotin (EZ-Link NHS-PEG4-Biotin, conditions favouring the amino-terminal α-amino group) in the BLI assay; [U-2H,15N]-labelled in the NMR titration
notes: E. coli DNA polymerase IV (DinB), residues 1-230 (Fingers, Palm, Thumb); stop codon introduced at amino acid 231; also called Biotin-DinBΔPAD; source: E. coli BL21 (λDE3), purified (Ni2+-Histrap, heparin, SEC)
In the case of B1, the Kd (in general, the equilibrium constant for the complex coming apart) in assay [1] is 5.9 ± 0.05 nM.

B2: DNA polymerase IV (DinB), DinB^1-351 (enzyme, E. coli, UniProt Q47155 1-351, looked up)
chain: MRKIIHVDMDCFFAAVEMRDNPALRDIPIAIGGSRERRGVISTANYPARKFGVRSAMPTGMALKLCPHLTLLPGRFDAYKEASNHIREIFSRYTSRIEPLSLDEAYLDVTDSVHCHGSATLIAQEIRQTIFNELQLTASAGVAPVKFLAKIASDMNKPNGQFVITPAEVPAFLQTLPLAKIPGVGKVSAAKLEAMGLRTCGDVQKCDLVMLLKRFGKFGRILWERSQGIDERDVNSERLRKSVGVERTMAEDIHHWSECEAIIERLYPELERRLAKVKPDLLIARQGVKLKFDDFQQTTQEHVWPRLNKADLIATARKTWDERRGGRGVRLVGLHVTLLDPQMERQLVLGL
modifications: biotin (EZ-Link NHS-PEG4-Biotin, conditions favouring the amino-terminal α-amino group) in the BLI assay; isotope-labelled ([U-2H,15N] or MALVI^proS methyl-labelled) in the NMR titrations
notes: E. coli DNA polymerase IV (DinB), residues 1-351, from pET28b(+)-DinB (Genscript); No removal of the His6 tag is described for DinB and DinBΔPAD; also called full-length DinB; MALVI^proS-DinB; source: E. coli BL21 (λDE3), purified (Ni2+-Histrap, heparin, SEC)
In assay [2], B2 gave a Kd of 6.4 ± 0.07 nM.
